Results as given in paper PMC11717359, “A new pipeline SPICE identifies novel JUN-IKZF1 composite elements”.

Molecular target: IKZF1 (Ikaros), recombinant (Homo sapiens, UniProt Q13422 1-519)
Assay: EMSA; 1 ug IKZF1 alone; EMSA per LI-COR kit protocol (829-07910), 100 nM IR700 probe, 4-12% TBE gel in 0.5x TBE; binding buffer, pH and temperature not stated
Details: protein: commercial; chain copies: 2; label: IRDye 700

IKZF1 (Ikaros), recombinant, sequence (Q13422 whole entry): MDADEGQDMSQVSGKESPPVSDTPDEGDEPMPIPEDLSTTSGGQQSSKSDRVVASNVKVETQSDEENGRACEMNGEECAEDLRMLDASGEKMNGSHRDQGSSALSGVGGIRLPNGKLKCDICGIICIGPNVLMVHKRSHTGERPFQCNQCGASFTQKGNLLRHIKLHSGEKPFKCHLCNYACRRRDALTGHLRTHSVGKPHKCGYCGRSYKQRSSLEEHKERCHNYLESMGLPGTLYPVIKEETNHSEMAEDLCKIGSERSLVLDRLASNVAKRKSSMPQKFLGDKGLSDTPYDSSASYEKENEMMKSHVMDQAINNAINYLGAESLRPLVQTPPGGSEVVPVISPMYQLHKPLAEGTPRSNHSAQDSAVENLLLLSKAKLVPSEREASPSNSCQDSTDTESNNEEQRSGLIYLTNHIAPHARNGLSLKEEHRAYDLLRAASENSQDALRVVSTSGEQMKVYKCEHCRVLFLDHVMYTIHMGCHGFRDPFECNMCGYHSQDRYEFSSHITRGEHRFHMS

B1: IL10 CNS9 WT probe (dsDNA)
DNA 1: GAGGTTGCAGTTTCGTTGTGAGTCAGGCCTGCTGA
DNA 2: TCAGCAGGCCTGACTCACAACGAAACTGCAACCTC
binding result: no binding
